T1: Alba1 (Ape10b1);Alba2 (Ape10b2) (Aeropyrum pernix;Aeropyrum pernix, UniProt Q9YAW1;Q9YAX2 1-94;1-102, |)
T1 sequence 1: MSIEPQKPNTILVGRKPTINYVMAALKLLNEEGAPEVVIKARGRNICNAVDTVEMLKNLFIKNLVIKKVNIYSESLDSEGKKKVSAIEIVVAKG
T1 sequence 2: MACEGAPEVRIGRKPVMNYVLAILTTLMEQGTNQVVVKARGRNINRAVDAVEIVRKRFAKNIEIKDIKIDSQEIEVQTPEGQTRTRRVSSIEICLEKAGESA

T2: Alba1 (Ape10b1) (Aeropyrum pernix, UniProt Q9YAW1 1-94)
T2 sequence: T1 sequence 1

T3: Alba2 (Ape10b2) (Aeropyrum pernix, UniProt Q9YAX2 1-102)
T3 sequence: T1 sequence 2

B1: SPRspecAP (dsDNA)
DNA 1: CCCCCCCGTGAAAGCCTAGACAGCGAGGCCCCCCC
DNA 2: GGGGGGGCCTCGCTGTCTAGGCTTTCACGGGGGGG
B2: Alba2 protein from Aeropyrum pernix (APE1823) (natural protein)
chain: T1 sequence 2
notes: Alba2 (Ape10b2), Aeropyrum pernix, locus APE1823; 102 amino-acid residues (11,380 Da); His-tag is removable by thrombin; Co-expression with untagged Alba1 may leave Alba1 in the Alba2 preparation (my surmise); also called Ape10b2; APA2
B3: Alba1 protein from Aeropyrum pernix (APE1832.1) (natural protein, UniProt Q9YAW1 1-94, looked up)
chain: T1 sequence 1
notes: Alba1 (Ape10b1), Aeropyrum pernix, locus APE1832.1; 94 amino-acid residues (10,336 Da); His-tag is removable by thrombin; also called Ape10b1; APA1

What was measured:
[1] = biological target: T1, Alba1 (Ape10b1);Alba2 (Ape10b2); assay: SPR; 6.0 uM equimolar complex; biphasic; ITC: 50 mM NaH2PO4, pH 7.0, 25 C; SPR: 50 mM NaH2PO4, 150 mM NaCl, 0.005% P20, pH 7.0, 25 C; UV melting: 50 mM NaH2PO4, pH 7.0; EMSA: 0.8% agarose, 1 h at room; conditions: protein: recombinant;recombinant; tags: His-tag (pQE-30UA); copies: 1;1; label: 5'-biotin on one strand (S1); blunt
Alba1 (Ape10b1) = biological target: T2, Alba1 (Ape10b1); assay: SPR; 6.0 uM protein; saturable, fast association; ITC: 50 mM NaH2PO4, pH 7.0, 25 C; SPR: 50 mM NaH2PO4, 150 mM NaCl, 0.005% P20, pH 7.0, 25 C; UV melting: 50 mM NaH2PO4, pH 7.0; EMSA: 0.8% agarose, 1 h at room; conditions: protein: recombinant; tags: His-tag (pQE-30UA); chain copies: 2; label: 5'-biotin on one strand (S1); blunt
Alba2 (Ape10b2) = biological target: T3, Alba2 (Ape10b2); assay: SPR; 6.0 uM protein; slower association and dissociation; ITC: 50 mM NaH2PO4, pH 7.0, 25 C; SPR: 50 mM NaH2PO4, 150 mM NaCl, 0.005% P20, pH 7.0, 25 C; UV melting: 50 mM NaH2PO4, pH 7.0; EMSA: 0.8% agarose, 1 h at room; conditions: protein: recombinant; tags: His-tag (pETDuet-1); chain copies: 2; label: 5'-biotin on one strand (S1); blunt
[2] = biological target: the molecule itself; assay: native gel or EMSA; native protein PAGE, 20% acrylamide homogeneous gel, PhastSystem, acidic buffer agarose strips, proteins migrating towards the negative electrode; equinatoxin II (19.82 kDa) as size reference

Row | Binder | binding result [1] | binding result (Alba1 (Ape10b1)) | binding result (Alba2 (Ape10b2)) | stoichiometry N [2]
1 | B1 | binds | binds | binds | –
2 | B2 | – | – | – | 2
3 | B3 | – | – | – | 2

From PMC3585288, “Interactions of Archaeal Chromatin Proteins Alba1 and Alba2 with Nucleic Acids” (PLoS ONE, 2013)
